Patent US20260184791A1 (KYMAB, published 2026)

Legend:
[1] = target: T1, human ICOS expressed on the surface of cells (human, UniProt Q9Y6W8 21-199); test: Receptor occupancy by chip cytometry on ICOS+ CD4 memory cells (ICOS+CD3+CD4+FoxP3-CD45RA-) from blood of patients dosed with KY1044 every 3 weeks; samples at C1D1, C1D8, C2D1 and C2D8
T1 construct: also called hICOS; Human ICOS CHO
T1 sequence: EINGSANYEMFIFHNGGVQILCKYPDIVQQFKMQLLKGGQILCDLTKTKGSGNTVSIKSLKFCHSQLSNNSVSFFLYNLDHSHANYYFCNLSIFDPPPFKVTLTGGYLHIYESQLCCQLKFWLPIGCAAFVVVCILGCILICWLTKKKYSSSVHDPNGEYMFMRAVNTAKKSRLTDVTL

[2] = target: T1, human ICOS expressed on the surface of …; test: flow cytometry, CHO-S cells expressing ICOS, purified IgG1
[3] = target: T2, mouse ICOS expressed on the surface of CHO-S cells (mouse, UniProt Q9WVS0 21-141); test: as above
T2 construct: The construct expressed in CHO-S cells is not specified; also called mICOS; Mouse ICOS CHO
T2 sequence: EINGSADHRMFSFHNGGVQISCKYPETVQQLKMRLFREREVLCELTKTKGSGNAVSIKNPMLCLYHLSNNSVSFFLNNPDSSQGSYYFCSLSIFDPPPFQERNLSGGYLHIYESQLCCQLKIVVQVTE

B1: KY1044 (antibody, human IgG1, kappa, V domains shown)
VH: EVQLVESGGGVVRPGGSLRLSCVASGVTFDDYGMSWVRQAPGKGLEWVSGINWNGGDTDYSDSVKGRFTISRDNAKNSLYLQMNSLRAEDTALYYCARDFYGSGSYYHVPFDYWGQGILVTVSS
VL: EIVLTQSPGTLSLSPGERATLSCRASQSVSRSYLAWYQQKRGQAPRLLIYGASSRATGIPDRFSGDGSGTDFTLSISRLEPEDFAVYYCHQYDMSPFTFGPGTKVDIKR
notes: also called STIM003; SAR445256
B1: binds [1].

B2: CL-74570 (antibody, human IgG1, V domains shown)
VH: EVQLVESGGGVIRPGGSLRLSCAASGFTFDDYGMSWVRQAPGKGLEWVSGINWIGDNTDYADSVKGRFTISRDNAKNSLYLQMNSLRAEDTALYYCARDYFGSGSYYNVPF
VL: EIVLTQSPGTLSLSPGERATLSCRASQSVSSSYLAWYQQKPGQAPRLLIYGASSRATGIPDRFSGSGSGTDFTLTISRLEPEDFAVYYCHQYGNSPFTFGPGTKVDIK
B2 was tested, and the “fold above the average of geomean of the negative control” value (from here on “fold above the average”) [2] was over 10 fold and the “fold above the average” value [3] was over 10 fold.

B3: CL-61091 (antibody, human IgG1, V domains shown)
VH: QVQLMQSGTEVKKPGASVKVSCKTSGYTFTTYGITWVRQAPGQGLEWMGWISAYSGDTDYAQKFQGRVTVTTDTSTNTAYMELRSLKSDDTAVYYCARSSGWPHHYGMDVWGQGTTVTVSS
VL: DIVMTQSPLSLPVTPGEPASISCRSSQSLLHSNGFNYFDWYLQKPGQSPQLLIFLVSNRASGVPDRFSGSGSGTDFTLKISRVEAEDVGIYYCMQALQTPLTFGGGTKVEIK
B3 was tested, and the “fold above the average” value [2] was over 10 fold and the “fold above the average” value [3] was over 10 fold.
